The results in this text go back to the domain aggregation screens of Martell et al. (2025).

The nature of this data set: soluble fraction after stress (log2 fold change); higher = more stays soluble; pooled small domains, quantitative proteomics. The following applies: stress: pH 4. An outline of the steps: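 Pooled custom libraries of small protein domains were subjected to pH 4 and measured by high-throughput quantitative proteomics. The log2 fold change in soluble amount per domain is reported, higher values meaning more remained soluble. This is used as a measure of aggregation propensity.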
Consider “HMNINLDINTYTVKELEKLLKLEVPYSDNNVFEKKNLMVKMIQTSTIAETKKEELYIFLDNIYNRLTNNLE”, for which the “soluble fraction (log2)” value was -0.942.

On to “HMNISLGALVTITDQKGRSHTVTLESGKQFFTNHGSINHDEIIKAGEGGVVASSSGMLYTIFTP”, for which the “soluble fraction (log2)” value was -0.551.

“HMNISRESLIGQILATLNKNPEEGFNYKQIAKRLNITDSPGRQMISDLLRELSKHGSLQEISHGKYKIKV”: the “soluble fraction (log2)” value came to 0.215.

In the case of “HMNITHEINVKSKSKIDFLENNKNLAQFFLTKNPNQFNYNLVFSDKSELNIIKEKIESHKDIEDIDIRYG”, the “soluble fraction (log2)” value was -1.11.

As for “HMNIVINVDTPTFEQMKATYQAPGTLPAGASFHAKLKGVTVTGYTKSHKVMFQGALANQEAARWQ”, the “soluble fraction (log2)” value was at least 0.43.

Regarding “HMNIYFNIEDAVANAVVENGKMSAAIYEKNVDTGEVAKLAEVSMPVMGGNINITKTLLTKALISQLP”, the “soluble fraction (log2)” value was -0.713.

Turning to “HMNKAYLTVADMKKDKSLKNGDVVRTLGYYGYNDGDGAVYQIKDSHPEDYHIRLDNGLDAEQINY”, the “soluble fraction (log2)” value was 0.174.

For “HMNKEHINLDSSKFLSLLNKTKISMSNDETRHYLNGIYIHPTVSNKSSYLTGVATDSHRLSSSSIPVD”, the “soluble fraction (log2)” value is -0.311.

Regarding “HMNKMIIELGEKLKALRTENHLRQDQVARLVNVEKSSISMYETGMRQPSYTTLVRLADVFNVTTDYLLGRK”, the “soluble fraction (log2)” value came out at 0.307.

With “HMNKPTSMYKLRLLLKHYHAGASKRWMADVLDISRSTLNVYLARIESLNLAFEEWEALSDLEVSRLLINP”, the “soluble fraction (log2)” value is -0.852.

Turning to “HMNKVAQFYRELVSTLSERLRNGERDIDALVEQARVRISQSGELTQSEIENVIRAVRRDLEEFALSYEE”, the “soluble fraction (log2)” value is -1.73.

Consider “HMNLAISAYQQLKSDIIRGVYAPGEKLLMSRLKVRYGLGIGPMREALSQLVSEHLVTAASQRGYRVAGM”, for which the “soluble fraction (log2)” value is 0.129.

Take “HMNLAPLLTEYVQINFRRASEMKTYLEQANLISERGFLLADDQTNILMVRETGASIEEIRRTLNRF”: the “soluble fraction (log2)” value was -1.61.

For the sequence “HMNLFKAPMPGLIRTIVVAEGQEVKKGDVILILEAMKMENALKSPADLVVKSIKVQQGQAVEKNQLLIEF”, the “soluble fraction (log2)” value was -0.14.

Regarding “HMNLGNLLKIYRKNSLLTQQQVADALNINRTTYTYYETGKTEPSIDTLHKLIKIFGITYDDLL”, the “soluble fraction (log2)” value was -0.337.

Turning to “HMNLKDINLNVRHYKIIDFVREHGYASIETLTRQFGVSAQTVRRDIIYLDNQAVLKRHHGGVGTLPG”, the “soluble fraction (log2)” value is -0.723.

As to “HMNLPTSGVDALTPAERRVARMAGDGQSNREIAQTLFVTRKTVEIHLTSVYRKLGIASRAELSARL”, the “soluble fraction (log2)” value was -0.59.

Take “HMNLQGIISQKAIVTQTIEPYETGVAKLNGEEWTAMSKDETRIEAGKLVEVVAIEGVKLIVKEVS”: the “soluble fraction (log2)” value was -0.295.

Consider “HMNLVELKHAEEFNTLIIQDIGGRMKPAHTLASELVRKVFHNDDFNGIDPRKVFLSIIENSKVWFNVPFI”, for which the “soluble fraction (log2)” value is -0.361.

For “HMNLYENLATHVKNAIRQGVYQPGDRLPSVRRLSEQHRVSQNTAVSAYRLLESHGWLEARPQSGFFARHP”, the “soluble fraction (log2)” value was 0.297.

Turning to “HMNLYERFPIHELWKETFNETLDEEEHITFITSEFKPENIVLGQGFIAAPSKKDAVDWLKVIRTVLIFYDS”, the “soluble fraction (log2)” value was -1.61.

“HMNMANFARIRLILELHDRGMSQDEISRSRHMSRSTITTVLRTARKKGITYAGIRKLDDAALQKLFFPDR”: the “soluble fraction (log2)” value is 0.22.

As for “HMNMDLGHSISKLRTDANLTQEKFAQILNVSRQTVQKWEYGEALPDIHNIIKIAKFFNISLDALVLRS”, the “soluble fraction (log2)” value is -0.222.

On to “HMNMIGDVIRNLRTVSSMTQTELGQRMGVIKQTISNWEKNISTPSIDAIVKLSSIFNVPTDYLL”, for which the “soluble fraction (log2)” value is -0.178.

For the sequence “HMNMMESNLFAVYDNDDIVKTLRQGAMEIDSLIRLMGKSSAEVLEKLTTMELQGIITRSGNIIALNN”, the “soluble fraction (log2)” value is -1.38.

Take “HMNMNDIKFGKYLKRVRKKYNFSKEYVANILKVKESLVSDWESGRLTLNDEYMEKLSLFYGVNLYKK”: the “soluble fraction (log2)” value is -0.123.

As to “HMNMPDVTVEWVKEQQAKFGLTDSDLAKSVNIDNANLARIFNQRGLTKIHKALFYYFFRAYGLQ”, the “soluble fraction (log2)” value was -1.1.

On to “HMNMRVLSEQPNKKSYQDGNLRLKVFGASFKKSDILNEALNQARVEETGLQIPKLLEVKQIDGQWTIVTE”, for which the “soluble fraction (log2)” value was -0.393.

With “HMNMVSGHLQVKKGYYYAVLSFYDSKNKRHVKYISTGLPEKGNKRKAEAELVKIRNAFEPPAE”, the “soluble fraction (log2)” value was -0.0995.

As to “HMNNESEGAIMLRQYSSLSAYLTKYNIDVNSKKAQQYASSLKLAQEKGSAEGQKYLSSISSELDD”, the “soluble fraction (log2)” value is 0.00542.

In the case of “HMNNIIEQIKADIKKLEEKLDKSSENALNKLEKDYSSLSTESKKKLDDAGYGARIKALRVKFAALSTQ”, the “soluble fraction (log2)” value was at least 0.43.

Turning to “HMNNISKKIKELREQNNITQNKLANDLFIKQQTVAQWENGSRALKADSIISLAKYFNVSTDYLLGLTEN”, the “soluble fraction (log2)” value was -0.634.

“HMNNLKTKELSKIGYTNDKARSLVISIIPKHFKYHSKSEIIELLTNIKNKPEDYVSDEILGKIAETFMEKI”: the “soluble fraction (log2)” value was -1.19.

For “HMNNLSEELNVTFPRTRDQLLNILHYVQHKYGYISKVSMQEIGNHIKMPVSEIYGTVTSYSEFKI”, the “soluble fraction (log2)” value is -0.965.

As to “HMNNLTEEAINHLVLEVKNVLLTDALFLGKATDSQLMLRIKETIDQRNGQYNIGMNDRERIARRVFARLR”, the “soluble fraction (log2)” value is at least 0.43.

Consider “HMNNLVGKTKVLKSNTNIYAYKTMSGKFYSYLPNTRVRVLQDLGYINYIEVIATKRRGYVYENVY”, for which the “soluble fraction (log2)” value was -0.165.

As to “HMNNNIFVYPNPSINYINIDSDEEIWKLEIIQMSGEKINILPFSKRIDISFLSKGLYILNFNNYYIKFIK”, the “soluble fraction (log2)” value is -0.937.

For “HMNNQIFGLKFRQLRKQQHITLAKAAAGITSRQSLGNWETGKGELAFEKVLLLLKKINVQPIDFLESSIS”, the “soluble fraction (log2)” value amounted to 0.264.

As for “HMNNQILYERLRDLRERNHFTQAFVSSKLNIGRATYSNYERGKRTPSLDVIMDLASFYKVPFTYF”, the “soluble fraction (log2)” value was 0.113.

As to “HMNNQMTFSKFLNEVDAGRVVEVEIQGNNIKGVLADGNRFNTFSPNYPNLVEKLSDKGVSITAAPK”, the “soluble fraction (log2)” value came out at 0.205.

Consider “HMNPASVLDGLKITSFSPTRAIVAGPGGSRIVFDNEAVVLGGIEWDVHIQRNGIEFTSQGQTVLLLFDRS”, for which the “soluble fraction (log2)” value is -0.514.

“HMNPDDEMLLTYLTKLLVDKQFIVNSNDIFEYILRRVDRTYDGIYDIVSKLDVLSLEKKRQLTIPLIKEI”: the “soluble fraction (log2)” value stood at 0.103.

Regarding “HMNPETIHNDYKAFIKFAFSGLSYYSKVWNQNREMITPGLLETLWQKYRHLSIGEIETILEKIIKEG”, the “soluble fraction (log2)” value is -1.24.

On to “HMNPGNTESFPVYQKRLGEIIQTLAGKKGQDINSPEVKELVGEYDFLTKQMFQLPDATSMVMEIATAYRN”, for which the “soluble fraction (log2)” value was -0.224.

Take “HMNPKTELMVYLKKRDEWVASQILSDVLQVSTRTIRKFVKEINMDYQTENVILSSSKGYKLNQNLLSSL”: the “soluble fraction (log2)” value is -0.281.

“HMNPLPALLRYFRQKAGLTQQDVAAALSISRSGYANYEEGRNIPNIEQAIKLSELLNHDFLYAYTLSS”: the “soluble fraction (log2)” value was -0.749.

For the sequence “HMNPNYIKKLREKNQLTQEYLAAQIGVSRPTYAQIEQGQRGLTVTEAKKMADIFSLALDDFLAEKN”, the “soluble fraction (log2)” value was -0.442.

For “HMNPSIALHDWLQSSEFKGSINLFAAALGMNPRTVEAWVYGRSTPSRRFWAKLYQITNLSRFRL”, the “soluble fraction (log2)” value was determined as 0.22.

For “HMNPYLWQRVRLLFSNVGVINNSATVDLVFSAPKGVLTEDLANNFSAALVKKGKEELGLDDIKITISVIPN”, the “soluble fraction (log2)” value was -2.21.

As to “HMNQADNFNSLTKREKDVLLLVTQGESNKSIADKLVLSEVTVKSHLNSIFKKLNVTNRTQAVLVAMQMNLV”, the “soluble fraction (log2)” value was -0.85.
